The text below walks through data of the Immune Epitope Database (IEDB).

One assay has as its target HLA-B*40:01. Briefly: IEDB peptide-MHC binding, purified MHC/competitive/radioactivity; filed as Kd, often an IC50 or EC50 that approximates it; ≥ and ≤ were set here for values at or beyond the usual limits of such assays.
The next assay addresses HLA-A*68:02. The description is as above.
The next assay concerns the target HLA-B*51:01. The assay is described as above.
A further assay concerns the target HLA-B*44:02. Described as above.
In the next assay the target is HLA-A*32:01. The assay is described as above.
Assay [1] deals with HLA-B*08:01. Briefly: IEDB peptide-MHC binding, purified MHC/direct/fluorescence; filed as Kd, often an IC50 or EC50 that approximates it; ≥ and ≤ were set here for values at or beyond the usual limits of such assays.
The next assay addresses HLA-A*02:06. Briefly: IEDB peptide-MHC binding, purified MHC/competitive/radioactivity; filed as Kd, often an IC50 or EC50 that approximates it; ≥ and ≤ were set here for values at or beyond the usual limits of such assays.
The target in a further assay is HLA-A*02:03. Described as above.
Assay [2] addresses HLA-A*26:01. Briefly: IEDB peptide-MHC binding, purified MHC/direct/fluorescence; filed as Kd, often an IC50 or EC50 that approximates it; ≥ and ≤ were set here for values at or beyond the usual limits of such assays.
A further assay deals with HLA-A*30:01. Description: IEDB peptide-MHC binding, purified MHC/competitive/radioactivity; filed as Kd, often an IC50 or EC50 that approximates it; ≥ and ≤ were set here for values at or beyond the usual limits of such assays. Conditions: source organism: Mammarenavirus guanaritoense.
A further assay has as its target HLA-A*29:02. Described as above. Conditions: source organism: Mammarenavirus guanaritoense.
In a further assay the target is HLA-A*01:01. The assay is described as above. Conditions: source organism: Mammarenavirus guanaritoense.
Another assay has as its target HLA-A*30:02. Described as above. The following applies: source organism: Mammarenavirus guanaritoense.
The target in assay [3] is HLA-A*26:01. The description is as above. The following applies: source organism: Mammarenavirus guanaritoense.
Assay [4] deals with HLA-B*08:01. The assay is described as above. The following applies: source organism: Dengue virus 1 Brazil/97-11/1997.
Another assay addresses HLA-A*02:02. The description is as above. Conditions: source organism: Lassa virus Josiah.
Setting [5] is: source organism: Dengue virus 3 Martinique/1243/1999.
Setting [6] is: source organism: Dengue virus 2 Jamaica/1409/1983.
The mark [7] stands for this setting: source organism: Dengue virus 1 Brazil/97-11/1997.
Where [8] appears, read: source organism: Dengue virus 4 Singapore/8976/1995.
Setting [9] is: source organism: Dengue virus 1 Singapore/S275/1990.
Setting [10] is: source organism: Dengue virus 4 Philippines/H241/1956.
Setting [11] is: source organism: Mammarenavirus guanaritoense.
Where [12] appears, read: source organism: Lassa virus Josiah.

As a reminder, the Kd is the equilibrium constant for the complex coming apart.

As to GEYRLKGESR, the Kd with HLA-B*40:01 (setting [5]) turned out to be 4130 nM.

With QVFGAIYGA, the Kd with HLA-A*68:02 (setting [6]) was found to be 1.97 nM.

In the case of MAEIPLQWI, the dissociation constant (Kd) with HLA-B*51:01 (setting [5]) amounted to 3430 nM. With LTVAANEMGL, in the assay with HLA-A*68:02 (setting [7]), the Kd turned out to be 198 nM. Consider GEWKEGEEV, for which the Kd with HLA-B*44:02 (setting [6]) amounted to 16300 nM; with HLA-B*40:01 (setting [6]) it was 295 nM. With ADMGCVVSW, the results for the dissociation constant Kd with HLA-B*44:02 (setting [8]) and in the assay with HLA-A*32:01 (setting [8]) were 10.6 nM and 415 nM, respectively. Take ILRKATRRL: the dissociation constant Kd with HLA-B*08:01 [1] (source organism: Influenza A virus (A/Ck/HK/CSW161/2003(H9N2))) was 369 nM. Regarding EPPFGDSYI, in the assay with HLA-B*51:01 (setting [6]), the dissociation constant (Kd) is 349 nM. In the case of IPPEKCDTL, the dissociation constant Kd with HLA-B*51:01 (source organism: Dengue virus 2 16681-PDK53) is no less than 77400 nM. With CVMASSVLL, the dissociation constant Kd with HLA-A*68:02 (setting [9]) stood at 1.46 nM. On to KEENLVKSM, for which, in the assay with HLA-B*40:01 (setting [9]), the dissociation constant (Kd) came out at 2830 nM.

As for WLHRGPKEF, the equilibrium dissociation constant (Kd) in the assay with HLA-B*08:01 [1] (source organism: West Nile virus) amounted to 2510 nM.

For AEHSGTSHNI, in the assay with HLA-B*44:02 (setting [7]), the Kd came to 48.2 nM. Take TAYGVLFSGV: the Kd with HLA-A*68:02 (setting [7]) turned out to be 5.16 nM; in the assay with HLA-A*02:06 (setting [7]) it was 1.54 nM; with HLA-A*02:03 (setting [7]), 16.1 nM. Take DTIYPTAIY: in the assay with HLA-A*26:01 [2] (source organism: Mycobacterium tuberculosis), the dissociation constant Kd turned out to be 3 nM. As to VPFCSHHFHE, the equilibrium dissociation constant (Kd) with HLA-B*51:01 (setting [5]) was no less than 66600 nM.

Take MEFIDGISLG: in the assay with HLA-B*40:01 (setting [10]), the Kd came to 137 nM.

As for NTPEGIIPA, the Kd in the assay with HLA-A*68:02 (setting [7]) is 9.22 nM. As for IENTSANLSL, in the assay with HLA-B*40:01 (setting [10]), the Kd came out at 34.4 nM. In the case of LETRTETWM, in the assay with HLA-B*40:01 (setting [6]), the dissociation constant (Kd) was determined as 253 nM. As to SWDNTSVDLY, the Kd in the assay with HLA-A*30:01 is 9330 nM; with HLA-A*29:02 it was 856 nM; with HLA-A*01:01, 1280 nM; with HLA-A*30:02 it was 147 nM; in the assay with HLA-A*26:01 [3] it was no less than 69700 nM; with HLA-A*32:01 (setting [11]), no less than 69900 nM. For the sequence MPIRYQTTA, the values for the dissociation constant Kd with HLA-B*08:01 [4] and with HLA-B*51:01 (setting [7]) were 201 nM and 1690 nM, respectively. Turning to STLELRSGY, the dissociation constant (Kd) in the assay with HLA-A*26:01 [2] (source organism: Influenza A virus (A/Egypt/96/2002(H1N2))) was determined as 24.8 nM.

Regarding VVIFILLMLV, the Kd with HLA-A*68:02 (setting [5]) was found to be 767 nM; with HLA-A*02:06 (setting [5]) it was 971 nM. As to GLYKQPGVPV, the dissociation constant (Kd) in the assay with HLA-A*68:02 (setting [12]) is no less than 5000 nM; with HLA-A*02:06 (setting [12]), 804 nM; with HLA-A*02:03 (setting [12]), 23.8 nM; with HLA-A*02:02 it was 1400 nM. Consider YSEESPTEY, for which the dissociation constant (Kd) with HLA-A*30:01 was 19400 nM; with HLA-A*29:02 it was no less than 25400 nM; with HLA-A*01:01, 225 nM; with HLA-A*30:02, no less than 76900 nM; with HLA-A*26:01 [3] it was no less than 77900 nM; with HLA-A*32:01 (setting [11]) it was no less than 77800 nM. As for LSVSLVLVGV, the figures for the equilibrium dissociation constant (Kd) with HLA-A*68:02 (setting [6]) and with HLA-A*02:06 (setting [6]) were 12.2 nM and 75.5 nM, respectively. As for SLIKYKKTLL, the Kd with HLA-A*68:02 (source organism: Homo sapiens) came out at 649 nM.

As for FTVHADTGCA, the Kd with HLA-A*68:02 (setting [10]) turned out to be 134 nM. Regarding GPLIAGGMLI, in the assay with HLA-B*51:01 (setting [7]), the dissociation constant (Kd) was 18800 nM. In the case of IMRRRQYVL, the Kd in the assay with HLA-B*08:01 [1] (source organism: Giardia lamblia ATCC 50803) was 4 nM. Consider TIAVSMANI, for which the Kd in the assay with HLA-A*68:02 (setting [6]) was determined as 34.2 nM. MTATPPGSV: the dissociation constant Kd in the assay with HLA-A*68:02 (setting [7]) is 6.2 nM.

For the sequence MEIRPISEK, in the assay with HLA-B*44:02 (setting [5]), the dissociation constant Kd came to 1260 nM.
